Experimental data published in the RNAGym collection of RNA variant scans (doi:10.1073/pnas.2313332121).
Fewer inactive variants are shown than the library holds.

B1: TPR 5TU (parent)
chain: GGAUCUUCUCGAUCUAACAAAAAAGACAAAUCUGCCACAAAGCUUGAGAGCAUCUUCGGAUGCAGAGGCGGCAGCCUUCGGUGGCGCGAUAGCGCCAACGUUCUCAACUAUGACACGCAAAACGCGUGCUCCGUUGAAUGGAGUUUAUCAUG

Variants of: B1
Assay: polymerase ribozyme fitness, log enrichment relative to wild type (log ratio); higher = more active; in vitro selection for triplet polymerase activity
In short: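 One round of in vitro selection, in triplicate, was applied to PCR-built, transcribed mutant libraries of each subunit of a heterodimeric triplet polymerase ribozyme. The steps were annealing with a biotinylated primer, partner subunit and triplets, incubation frozen at −7 °C, gel excision of extended constructs, streptavidin-bead capture and RT-PCR. Fitness is the logarithm, base 2, of genotype enrichment over wild-type enrichment from inverse-variance-weighted replicate averages of Illumina-sequenced inputs and outputs, keeping genotypes with ≥10 input reads and ≥1 read per output.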

Point of comparison: U31A A97U, “polymerase ribozyme fitness (log ratio)” value -0.316. Against it:
- A30U G88C G92U C95A — lower, ≤ -4.2
- U31G C99U U145G — lower, -0.861
- A29U C95A — lower, -3.68
- A29U C95U — lower, -3.54
- U31A C93G C95U C96A A113G — lower, ≤ -4.2
- C32U U56A G58A G68A C76A C93A — lower, ≤ -4.2
- U31A C96U C99A — lower, -1.23
- A29G A52C C57U C93U — lower, ≤ -4.2
- C32G G42A U77C G84U — lower, ≤ -4.2
- A29G G50A A52C U101G G133C — lower, ≤ -4.2
- C32A U77G G88A G126C G143U — lower, ≤ -4.2
- A30G G50U U55G U82A — lower, ≤ -4.2
- A29U A40C G46A G67A G81A C85G A113C A137G — lower, ≤ -4.2
- A29G A73U A91G C99U A115U A137U — lower, ≤ -4.2
- U31G A52C G83A — lower, -2.81
- C32G G58C G94U — lower, -3.86
- A29U G126A — lower, ≤ -4.2
- U31A G58C G74C U139C U146A — lower, ≤ -4.2
- U31C G92C G126U — higher, 0.158
- A29U C38U G86A — lower, ≤ -4.2
- A30C A39U U44A U53A C93A — lower, ≤ -4.2
- C32A A40U G62U C85G U146A — lower, ≤ -4.2
- A29G C69U — lower, ≤ -4.2
- U31G G50A C51U G62C G68U C95U U101G A106C — lower, ≤ -4.2
- U31G G50U U56G — lower, -1.97
- A30G A60U C85A C95A C96A C125U A150C — lower, ≤ -4.2
- A30U G42U A119G A138G — lower, ≤ -4.2
- C32U G74A C93U — within 0.2 log units, -0.21
- U31A G67U G83A C85A U104G C105U G136A — lower, ≤ -4.2
- A30U A49G — lower, ≤ -4.2
- U31G C43G U53A G83U — lower, ≤ -4.2
- C32U G59C G84A — lower, -1.81
- A30C C63U A66C A73U C85A A91C U109G — lower, ≤ -4.2
- A30U U45A G94U C131G — lower, ≤ -4.2
- U31C C95A C96A U134C G143A U145G — lower, -3.45
- A30U U55G C63U A110U G126U — lower, -4.07
- C32G A49C A52C G143U — lower, ≤ -4.2
- A30C A41C C57A G62C G92A C131G — lower, ≤ -4.2
- A29U G141C — lower, -3.49
- A29C U55A C57U U90G A91C U148G — lower, ≤ -4.2
- C32G G46A A52G U53A A60U C87A A89U A142U — lower, ≤ -4.2
- C32G U33A C43G G81U G84A A142G — lower, ≤ -4.2
- U31A A39G G94U — lower, -2.07
- C32G G42U U55A U61A C85A C95A A107U — lower, ≤ -4.2
- A30U C35U G84A — lower, -4.19
- U31G A39G U55A A66C G68C C69U G117A — lower, ≤ -4.2
- C32G G50A U61A G62C G71A A91U G94C A138C — lower, ≤ -4.2
- U31C G71A G86C C118A U151G — lower, ≤ -4.2
- A30G G86A — lower, -3.45
- C32G G58A G84A A107G G124C U130G — lower, ≤ -4.2
- U31G G84A A89G — lower, -0.747
- A30U G50C — lower, ≤ -4.2
- A30G G42A C96G G100A U139C U148C — lower, ≤ -4.2
- A30G U33G U82C C103A U144A — lower, ≤ -4.2
- A29G C103G U104G — lower, ≤ -4.2
- C32G A39C A41C A52U G94C C116G — lower, ≤ -4.2
- A30G C85U — lower, -3.06
- A30U G86U — lower, ≤ -4.2
- C32G C76G G84C C118U C132G G133C — lower, ≤ -4.2
- U31C U55A G86C — lower, -2.47
- U31A A66C G67C G88A G141A U146G — lower, ≤ -4.2
- U31C G34A U78C G83C U145G — lower, ≤ -4.2
- U33A — lower, -3.29
- C32U G58C C63A — lower, -3.84
- U31C G94C C105A — lower, -1.61
- A30C C43G U45A C87A C103A — lower, ≤ -4.2
- A30C C87G U101C — lower, ≤ -4.2
- A29G C43A G48C C93G G126C — lower, ≤ -4.2
- A29G G46C A47C C132U U146A — lower, -4.16
- A30U G92U — lower, -3.52
- A29U A52G U55C U134A — lower, ≤ -4.2
- A30C G92A G100C — lower, ≤ -4.2
- A29U G58U U61A U82A G86A A119G — lower, ≤ -4.2
- A30C C95G C108U C132G G133U — lower, ≤ -4.2
- U31C G83C U111C G152A — lower, -3.66
- A29C U55A C75A C85U G141C — lower, ≤ -4.2
- A30U U53A — lower, -3.18
- C32A C38U U55A G94A G126C — lower, -3.92
- U31C U55A A97G — higher, 1.27
- C32U A49U C51U C75U U102C U146G — lower, ≤ -4.2
- C32G C87G C93U C99G U104A C123U — lower, ≤ -4.2
- U31G U56A — higher, 0.083
- A30U G46U U55G C79A U101G C108G C116U A119G G136U — lower, ≤ -4.2
- A30C A91C A98U A119U — lower, ≤ -4.2
- C32A C54U C93A A110G A137G G140C — lower, -4.17
- U31A A91G U144G — lower, -1.84
- A30U U77G G84U C129G G152C — lower, ≤ -4.2
- U31G C57A G136A G140A U146A — lower, -3.1
- A30G C95G — lower, -3.11
- C32U G68A C85A G94A U139A A147C — lower, ≤ -4.2
- A30U A52G G67U C132U — lower, ≤ -4.2
- A30U U56A G59A G94U C125A U127A U144A — lower, ≤ -4.2
- A29U C96U G136U — lower, ≤ -4.2
- A29G C35A U56C C69G G71U A91G A98U A138G — lower, ≤ -4.2
- A30G G46C G50U C57U C118G — lower, ≤ -4.2
- A30U G70A — lower, ≤ -4.2
- A29U U31G C72U G83C — lower, ≤ -4.2
- U31G C57G G88U — lower, ≤ -4.2
- A29U G92C U102C C116U — lower, ≤ -4.2
- U31G U61A A66G U90C U101C — lower, ≤ -4.2
- U31C C93U A120G — higher, 0.174
- U31C C93U C131U — higher, 1.12
- U31G C54G — lower, -1.02
- C32A A37C C95U — lower, ≤ -4.2
- C32G G50C C51U G88A A110G — lower, -4.19
- A29C U56A G80U A121G — lower, ≤ -4.2
- A30U C35U A52C C96U A107G C108G C114A — lower, ≤ -4.2
- C32U G34C C51U U130G U145A — lower, ≤ -4.2
- C32G C87A A107G — lower, ≤ -4.2
- A30C C96G — lower, -4.03
- C32U C96G — lower, -1.58
- U31G G81U C87G U104G G128C — lower, ≤ -4.2
- U31G U53A A91G A122G — lower, -3.62
- A30G A52C U53C C93A G100C C132A — lower, ≤ -4.2
- C32U A37U U56C C95U U145G U148G — lower, ≤ -4.2
- U31C C51A C69U G81A A91U G124A U144G — lower, ≤ -4.2
- U31C C69G C96U G117U C118G — lower, -1.49
- U31A C38U C95U C96A — lower, -1.16
- C32U U56A A91U A113U C118A G143C C149U — lower, ≤ -4.2
- U31G C35U C57U G117A — higher, -0.0701
- C32A G65A G88A C118U A120C A142G U144C — lower, ≤ -4.2
- C32U U55A C63U C118A — lower, -3.08
- A29G A41C A47G C85G G92U U104G A137G G141U — lower, ≤ -4.2
- A29C U45A C95G — lower, ≤ -4.2
- U31C C57A G83U C118U G124U A142C — lower, -2.24
- A30U A40U C87G C103G G141A — lower, -3.9
- A29U U33A U102G A113U U144C — lower, ≤ -4.2
- U31G C85U — higher, 0.998
- U31C C76U C96U G136C U144C U148C — lower, -3.9
- A29U A47C U55G C87U A98G — lower, ≤ -4.2
- A30G C35G G59U A113C C131A — lower, ≤ -4.2
- U31C G70A A98G G124C — lower, ≤ -4.2
- U31A C93A U127C — lower, -3.92
- A30C G46U C95G U102G — lower, ≤ -4.2
- A30G C76A C95A — lower, ≤ -4.2
- U31C A41C A91C C95G U139A G143C — lower, ≤ -4.2
- U31C C85G A98G — lower, -1.26
- A29U C114U A137G G141A U148C — lower, ≤ -4.2
- A30C C57U G81C C87G A97U U109G G141A — lower, ≤ -4.2
- U31G A39C G50A G92U G117A G140U U145A A147G — lower, ≤ -4.2
- U31C C93G — lower, -3.06
- C32U A49C A52G G58U G62C C131G — lower, ≤ -4.2
- A30C C87A — lower, ≤ -4.2
- A29U C54U G62A A113G U139G U148A — lower, ≤ -4.2
- A29U U44A C85G G124A G152A — lower, ≤ -4.2
- A30G C87A A91C A110U A115U U135C — lower, ≤ -4.2
- C32U G94U C116G — lower, -3.95
- C32G G59C U61A U82A G84U U134G G140C — lower, ≤ -4.2
- A30G A39U A52G U55G — lower, -4.08
- U31G A52C A64U C75G U90C C99U U134G — lower, ≤ -4.2
- U31G C79U U90G A106G C108A A137C — lower, ≤ -4.2
- A29U C93G — lower, ≤ -4.2
- A30U C36A C85U G92A C96A — lower, ≤ -4.2
- A30U C75G G84U C103G G124C — lower, ≤ -4.2
- U31G A37C U61A G126C U145C — lower, ≤ -4.2
- A30G C85U G128A — lower, ≤ -4.2
- A29U U55A G62C C116G — lower, ≤ -4.2
- C32A G67A G83A — lower, ≤ -4.2
- U31C A52C U56A U82C A107U — lower, ≤ -4.2
- A29U A52C G68C C96U C99G A121U G126A A150U — lower, ≤ -4.2
- U31C G143A — higher, 0.14
- A30C U111G C129U G136U — lower, ≤ -4.2
- U31C A52C C54U U139C G143U — lower, ≤ -4.2
- C32A C87A — lower, ≤ -4.2
- U31A C75G C95U C118U — lower, -3.7
- A30C C75G U78G C95G — lower, ≤ -4.2
